Measured values from paper PMC3823011.

Columns and labels:
[1] = molecular target: CmTic110B (Cyanidioschyzon merolae 10D); test: SEC + other: small-angle X-ray scattering
[2] = molecular target: CmTic110C (Cyanidioschyzon merolae 10D); test: SEC + other: small-angle X-ray scattering

| stoichiometry N [1] | stoichiometry N [2] | Substance |
| --- | --- | --- |
| 2 |  | CmTic110B (domain or fragment) |
|  | 2 | CmTic110C (domain or fragment) |
